Experimental data: PMC6269424

Conditions: O-GlcNAc at T84

Row | Substance | expression_or_secretion
1 | PPARγ2: T84A | decreases
2 | PPARγ2: adipocyte-specific OGT knockout (FKO) | decreases
